Experimental data: PMC7661507
Each block holds one substance with its values, some of them ahead of it.

Tests used:
[1] = biological target: H1 V104C/G194C labeled with Alexa Fluor 488/594 (human); experiment: single-molecule FRET; freely diffusing molecules; labeled protein titrated with the unlabeled partner (labeled ProTα with unlabeled H1, labeled H1 with unlabeled ProTα); TBS, 208 mM ionic strength
[2] = biological target: recombinant wild-type human histone H1.0 (unlabeled) (human); experiment: single-molecule FRET; competition titration, freely diffusing molecules; constant 50 pM labeled ProTα and unlabeled H1 (1 to 50 nM), unlabeled ProTα varied; TBS, 230 mM ionic strength
Sequence of recombinant wild-type human histone H1.0 (unlabeled) (human) (P07305 2-194): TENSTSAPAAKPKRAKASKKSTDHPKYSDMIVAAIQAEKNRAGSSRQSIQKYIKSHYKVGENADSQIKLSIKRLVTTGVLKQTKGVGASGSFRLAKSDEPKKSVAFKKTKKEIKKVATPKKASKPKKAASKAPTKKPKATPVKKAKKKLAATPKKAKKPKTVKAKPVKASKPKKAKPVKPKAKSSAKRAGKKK

[3] = biological target: recombinant wild-type human histone H1.0 (unlabeled) (human); experiment: single-molecule FRET; competition titration, freely diffusing molecules; constant 50 pM labeled ProTα and unlabeled H1 (1 to 50 nM), unlabeled ProTα varied; TBS, 165 mM ionic strength
[4] = biological target: 1:1 complex of ProTα E56C/D110C Alexa488/594 and unlabeled H1 (human); experiment: single-molecule FRET; freely diffusing molecules; unlabeled H1 titrated to 50 pM labeled ProTα fully saturated with unlabeled H1 (PH + H ⇌ PHH); TBS, 43 mM ionic strength
[5] = biological target: ProTα E56C/D110C labeled with Alexa Fluor 488/594 (human); experiment: stopped-flow fluorescence; 2 nM labeled ProTα mixed with different concentrations of H1; TBS, 165 mM ionic strength; fit with kex = kon cH + KD kon
[6] = biological target: 1:1 complex of ProTα E56C/D110C Alexa488/594 and unlabeled H1 (human); experiment: single-molecule FRET; freely diffusing molecules; unlabeled H1 titrated to 50 pM labeled ProTα fully saturated with unlabeled H1 (PH + H ⇌ PHH); TBS, 83 mM ionic strength
[7] = biological target: Avi-ProTα E56C/D110C, biotinylated, labeled with Cy3B/LD650 (human); experiment: single-molecule FRET; biotinylated Avi-ProTα immobilised on a PEG/neutravidin surface, unlabeled H1 in solution; two-state model of time traces; TBS in D2O, 230 mM ionic strength
[8] = biological target: 1:1 complex of ProTα E56C/D110C Alexa488/594 and unlabeled H1 (human); experiment: single-molecule FRET; freely diffusing molecules; unlabeled H1 titrated to 50 pM labeled ProTα fully saturated with unlabeled H1 (PH + H ⇌ PHH); TBS, 8 mM ionic strength
[9] = biological target: 1:1 complex of ProTα E56C/D110C Alexa488/594 and unlabeled H1 (human); experiment: single-molecule FRET; freely diffusing molecules; unlabeled H1 titrated to 50 pM labeled ProTα fully saturated with unlabeled H1 (PH + H ⇌ PHH); TBS, 33 mM ionic strength
[10] = biological target: ProTα E56C/D110C labeled with Alexa Fluor 488/594 (human); experiment: single-molecule FRET; freely diffusing molecules; 50 pM labeled ProTα titrated with unlabeled H1; TBS, 330 mM ionic strength
[11] = biological target: ProTα E56C/D110C labeled with Alexa Fluor 488/594 (human); experiment: single-molecule FRET; freely diffusing molecules; 50 pM labeled ProTα titrated with unlabeled H1; TBS, 340 mM ionic strength
[12] = biological target: Avi-ProTα E56C/D110C, biotinylated, labeled with Cy3B/LD650 (human); experiment: single-molecule FRET; biotinylated Avi-ProTα immobilised on a PEG/neutravidin surface, unlabeled H1 in solution; two-state model of time traces; TBS in D2O, 275 mM ionic strength
[13] = biological target: ProTα S1C/D110C labeled with Alexa Fluor 488/594 (human); experiment: single-molecule FRET; freely diffusing molecules; labeled protein titrated with the unlabeled partner (labeled ProTα with unlabeled H1, labeled H1 with unlabeled ProTα); TBS, 208 mM ionic strength
[14] = biological target: ProTα E56C/D110C labeled with Alexa Fluor 488/594 (human); experiment: as above
[15] = biological target: ProTα E55C/D109C labeled with Alexa Fluor 488/594 (human); experiment: as above
[16] = biological target: ProTα S1C/E55C labeled with Alexa Fluor 488/594 (human); experiment: as above
[17] = biological target: ProTα E56C/D110C labeled with Cy3B/Abberior STAR635 (human); experiment: as above
[18] = biological target: ProTα S1C/D109C labeled with Alexa Fluor 488/594 (human); experiment: as above
[19] = biological target: ProTα E56C/D110C labeled with Atto 550/647N (human); experiment: as above
[20] = biological target: 1:1 complex of ProTα E56C/D110C Alexa488/594 and unlabeled H1 (human); experiment: single-molecule FRET; rate coefficient of PH + H ⇌ PHH at 200 mM ionic strength; KD extrapolated from lower ionic strengths, kon^PHH assumed equal to kon^PPH
[21] = biological target: 1:1 complex of ProTα E56C/D110C Alexa488/594 and unlabeled H1 (human); experiment: single-molecule FRET; freely diffusing molecules; unlabeled H1 titrated to 50 pM labeled ProTα fully saturated with unlabeled H1 (PH + H ⇌ PHH); TBS, 23 mM ionic strength
[22] = biological target: 1:1 complex of ProTα E56C/D110C Alexa488/594 and unlabeled H1 (human); experiment: single-molecule FRET; freely diffusing molecules; unlabeled H1 titrated to 50 pM labeled ProTα fully saturated with unlabeled H1 (PH + H ⇌ PHH); TBS, 13 mM ionic strength
[23] = biological target: ProTα E56C/D110C labeled with Alexa Fluor 488/594 (human); experiment: single-molecule FRET; freely diffusing molecules; 50 pM labeled ProTα titrated with unlabeled H1; TBS, 180 mM ionic strength
[24] = biological target: 1:1 complex of ProTα E56C/D110C Alexa488/594 and unlabeled H1 (human); experiment: single-molecule FRET; freely diffusing molecules; unlabeled H1 titrated to 50 pM labeled ProTα fully saturated with unlabeled H1 (PH + H ⇌ PHH); TBS, 58 mM ionic strength
[25] = biological target: Avi-ProTα E56C/D110C, biotinylated, labeled with Cy3B/LD650 (human); experiment: single-molecule FRET; biotinylated Avi-ProTα immobilised on a PEG/neutravidin surface, unlabeled H1 in solution; two-state model of time traces; TBS in D2O, 275 mM ionic strength; remark: listed apart in the source
[26] = biological target: 1:1 complex of ProTα E56C/D110C Alexa488/594 and unlabeled H1 (human); experiment: single-molecule FRET; freely diffusing molecules; unlabeled H1 titrated to 50 pM labeled ProTα fully saturated with unlabeled H1 (PH + H ⇌ PHH); TBS, 18 mM ionic strength
[27] = biological target: Avi-ProTα E56C/D110C, biotinylated, labeled with Cy3B/LD650 (human); experiment: single-molecule FRET; biotinylated Avi-ProTα immobilised on a PEG/neutravidin surface, unlabeled H1 in solution; two-state model of time traces; TBS in D2O, 230 mM ionic strength; remark: listed apart in the source
[28] = biological target: ProTα E56C/D110C labeled with Alexa Fluor 488/594 (human); experiment: single-molecule FRET; freely diffusing molecules; 50 pM labeled ProTα titrated with unlabeled H1; TBS, 290 mM ionic strength
[29] = biological target: ProTα E56C/D110C labeled with Alexa Fluor 488/594 (human); experiment: single-molecule FRET; freely diffusing molecules; 50 pM labeled ProTα titrated with unlabeled H1; TBS (10 mM Tris, 0.1 mM EDTA, KCl), 140 mM β-mercaptoethanol, 0.01% Tween 20; 165 mM ionic strength
[30] = biological target: ProTα E55C/D109C labeled with Alexa Fluor 488/594 (human); experiment: single-molecule FRET; freely diffusing molecules; 50 pM labeled ProTα titrated with unlabeled H1; TBS, 200 mM ionic strength
[31] = biological target: Avi-ProTα E56C/D110C, biotinylated, labeled with Cy3B/LD650 (human); experiment: as above
[32] = biological target: ProTα E56C/D110C labeled with Alexa Fluor 488/594 (human); experiment: single-molecule FRET; freely diffusing molecules; 50 pM labeled ProTα titrated with unlabeled H1; TBS, 240 mM ionic strength

Sequence of recombinant wild-type human histone H1.0 (unlabeled) (natural protein) (P07305 2-194): as above

Kd [1]: 3.5 nM
Kd [2]: 6.5 nM
Kd [3]: 0.0058 nM
Substance: ProTα (unlabeled & NMR) (natural protein)

Kd [4]: 1800 nM
koff [5]: 0.006 s⁻¹
kon [5]: 3.5e+09 M⁻¹ s⁻¹
Kd [6]: 4100 nM
Kd [7]: 2 nM
koff [7]: 2.8 s⁻¹
kon [7]: 3.1e+09 M⁻¹ s⁻¹
Kd [8]: 200 nM
Kd [9]: 1310 nM
Kd [10]: 1400 nM
Kd [11]: 4000 nM
Kd [12]: 59 nM
koff [12]: 59 s⁻¹
kon [12]: 3.1e+09 M⁻¹ s⁻¹
Kd [13]: 2 nM
Kd [14]: 1 nM
Kd [15]: 1.3 nM
Kd [16]: 1.3 nM
Kd [17]: 1 nM
Kd [18]: 2.3 nM
Kd [19]: 3.1 nM
koff [20]: 6000 s⁻¹
Kd [21]: 540 nM
Kd [22]: 540 nM
Kd [23]: 0.037 nM
Kd [24]: 2800 nM
kon [25]: 1.01e+09 M⁻¹ s⁻¹
Kd [26]: 710 nM
kon [27]: 1.4e+09 M⁻¹ s⁻¹
Kd [28]: 230 nM
Kd [29]: 0.0021 nM
Kd [30]: 0.51 nM
Kd [31]: 1.12 nM
Kd [32]: 25 nM
Substance: recombinant wild-type human histone H1.0 (unlabeled) (natural protein)
